Measured values: doi:10.1101/2020.06.22.20137695

Columns and labels:
[1] = biological target: HCoV-OC43 spike protein, recombinant soluble ectodomain trimer (HCoV-OC43 | bacteriophage T4) (UniProt P36334); assay: SEC
[2] = biological target: HCoV-HKU1 spike protein, recombinant soluble ectodomain trimer (HCoV-HKU1) (UniProt Q0ZME7); assay: SEC

“HCoV-OC43 spike protein, recombinant soluble ectodomain trimer (from UniProt P36334 14-1297) (domain or fragment)” was tested. Which stoichiometry N [1] did it give?
The stoichiometry N was 3.

With “HCoV-HKU1 spike protein, recombinant soluble ectodomain trimer (from UniProt Q0ZME7 13-1295) (domain or fragment)” as the substance, how does the stoichiometry N [2] read?
Its stoichiometry N is 3.
